Test results as given in the supplement of paper PMC6757056.
± gives the standard deviation of the averaged measurements.

B1: library; a variant is named by its letters at N, in order (parent)
chain: GCUGUCACCGGAAUACCAGCAUCGUCUUGAUGCCCUUGGAAGUCCGGUCUGAUGAGUCCNNNNNGGACGAAACAGC

Legend:
theophylline [1] = variants of: B1; experiment: FACS-Seq fitted mean relative fluorescence mCherry/BFP without ligand (log10 relative fluorescence); higher = higher reporter protein expression; details: HEK293T, ligand present: no
Summary of the method: (§1)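 Fluorescence comes from a normal fit to bin counts, normalized against controls. HEK293T libraries lentivirally given a ribozyme-switch mCherry reporter and an EF1α-BFP marker were enriched, incubated 48 h with or without ligand, and sorted by mCherry/BFP into 6 bins. Bin genomic DNA was PCR-amplified, barcoded and sequenced on MiSeq. The log10(mCherry/BFP) mean was scaled to five spiked-in control ribozymes.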

theophylline [2] = variants of: B1; experiment: normalized RNA/DNA level with ligand (relative to sTRSVctl = 100) (log10 (% of sTRSVctl)); higher = less ribozyme self-cleavage, higher mRNA level; details: ligand concentration (+) RNA-Seq: 5 mM, HEK293T, reporter: mCherry (pCS4076), ligand present: yes
Summary of the method: (§2)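 RNA level was computed as RNA reads over DNA reads divided by a spiked-in non-cleaving sequence or by the top sequences, then scaled and log-transformed. Scaling was ×100 with log10, the top group was 25 sequences, and the threshold was ≥100 DNA reads. The reads came from HEK293T cells transfected at 4 µg per 6-well well with ribozyme switch library plasmids (mCherry, or eGFP in some ligand experiments). Total RNA was extracted with EDTA 72 h after transfection, with any ligand added 1 h before it.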

theophylline [3] = variants of: B1; experiment: normalized RNA/DNA level without ligand (relative to sTRSVctl = 100) (log10 (% of sTRSVctl)); higher = less ribozyme self-cleavage, higher mRNA level; details: HEK293T, reporter: mCherry (pCS4076), ligand present: no
Summary of the method: as §2

theophylline [4] = variants of: B1; experiment: FACS-Seq fitted mean relative fluorescence mCherry/BFP with ligand (log10 relative fluorescence); ligand concentration (+) FACS-Seq: 1 mM; higher = higher reporter protein expression; details: HEK293T, ligand present: yes
Summary of the method: as §1

Variant	FACS-Seq fitted mean (log10) (theophylline [1])	normalized RNA/DNA level with ligand (log10) (theophylline [2])	normalized RNA/DNA level without ligand (log10) (theophylline [3])	FACS-Seq fitted mean (log10) (theophylline [4])
CGGUC	1.07 ± 0.037	1.98 ± 0.051	1.82 ± 0.076	1.13 ± 0.05
CGGUA	0.028 ± 0.083	1.894 ± 0.0076	1.3 ± 0.025	0.602 ± 0.0084
AUCAA	1.02 ± 0.047	1.95 ± 0.084	1.68 ± 0.12	1.15 ± 0.083
AUCAC	0.845 ± 0.16	1.98 ± 0.022	1.96 ± 0.068	0.786 ± 0.039
CUGAU	1.02 ± 0.13	1.995 ± 0.013	1.7215 ± 0.00053	1.07 ± 0.082
CUGAA	0.3855 ± 0.0027	2.006 ± 0.0026	1.317 ± 0.0043	0.763 ± 0.15
CUGAC	0.906 ± 0.093	1.99 ± 0.056	1.99 ± 0.11	0.902 ± 0.031
AUAUG	0.794 ± 0.14	1.99 ± 0.045	1.8 ± 0.087	0.981 ± 0.043
AUAUC	0.978 ± 0.081	1.912 ± 0.018	1.94 ± 0.048	1.06 ± 0.012
AUAUA	-0.278 ± 0.26	2.006 ± 0.015	1.75 ± 0.028	0.0109 ± 0.01
AUAUU	0.891 ± 0.015	2.05 ± 0.067	1.91 ± 0.024	0.928 ± 0.12
CUAUA	0.141 ± 0.018	1.972 ± 0.0076	1.61 ± 0.08	0.384 ± 0.024
CUAUC	1.23 ± 0.19	1.89 ± 0.059	1.93 ± 0.073	1.16 ± 0.078
CUAUU	0.965 ± 0.18	2.03 ± 0.023	1.85 ± 0.1	0.924 ± 0.012
UUAGC	0.886 ± 0.052	1.97 ± 0.029	1.94 ± 0.042	0.916 ± 0.035
CUCUU	0.739 ± 0.01	2.032 ± 0.0025	1.91 ± 0.07	0.874 ± 0.038
CUCUA	0.786 ± 0.075	2.05 ± 0.018	1.78 ± 0.063	0.994 ± 0.09
CUCUC	0.298 ± 0.1	2.03 ± 0.027	1.95 ± 0.045	0.448 ± 0.12
UUCCG	0.818 ± 0.089	2.02 ± 0.032	2.017 ± 0.01	0.751 ± 0.086
UUCCC	1.02 ± 0.027	1.97 ± 0.04	1.99 ± 0.031	0.9913 ± 0.0095
AGUUC	0.981 ± 0.011	2 ± 0.034	1.89 ± 0.049	1.02 ± 0.049
AGUUA	0.892 ± 0.082	1.87 ± 0.14	1.68 ± 0.039	1.035 ± 0.0042
CUAGA	0.973 ± 0.064	1.96 ± 0.084	1.83 ± 0.04	0.9812 ± 0.0091
AUAGG	0.526 ± 0.084	1.994 ± 0.0048	1.84 ± 0.068	0.441 ± 0.063

Variant	FACS-Seq fitted mean (log10) (theophylline [1])	normalized RNA/DNA level with ligand (log10) (theophylline [2])	normalized RNA/DNA level without ligand (log10) (theophylline [3])	FACS-Seq fitted mean (log10) (theophylline [4])
AUAGC	0.922 ± 0.023	1.94 ± 0.082	1.87 ± 0.12	0.9641 ± 0.0048
AUAGA	0.592 ± 0.06	1.958 ± 0.018	1.57 ± 0.15	0.972 ± 0.13
AUAGU	0.0428 ± 0.058	2.04 ± 0.045	1.76 ± 0.038	0.179 ± 0.18
CUGUU	-0.291 ± 0.011	1.93 ± 0.061	1.81 ± 0.07	-0.12 ± 0.062
CUGUA	0.501 ± 0.02	2.08 ± 0.067	1.61 ± 0.052	0.643 ± 0.013
CUGUC	0.555 ± 0.065	2.021 ± 0.014	1.99 ± 0.021	0.5114 ± 0.0041
AGUGC	0.289 ± 0.03	2.01 ± 0.0061	1.87 ± 0.071	0.297 ± 0.058
AGUGG	0.488 ± 0.2	1.98 ± 0.064	1.84 ± 0.036	0.504 ± 0.026
AGUGA	0.239 ± 0.055	2 ± 0.0061	1.38 ± 0.17	0.535 ± 0.0085
UUACC	0.865 ± 0.28	2.02 ± 0.022	1.96 ± 0.095	0.847 ± 0.12
UUACU	1.05 ± 0.07	2.08 ± 0.052	1.93 ± 0.058	1.01 ± 0.18
UUACG	1.08 ± 0.025	2.019 ± 0.0074	1.93 ± 0.029	1.02 ± 0.027
AGGCU	0.7841 ± 0.0051	1.96 ± 0.053	1.936 ± 0.007	0.847 ± 0.013
CUCGA	0.868 ± 0.018	2.04 ± 0.076	1.95 ± 0.12	0.883 ± 0.1
CUGGA	1.07 ± 0.09	2.02 ± 0.043	1.84 ± 0.095	1.09 ± 0.045
UGUCU	0.747 ± 0.19	2.02 ± 0.035	1.988 ± 0.0094	0.783 ± 0.043
CGGGA	0.508 ± 0.043	2.01 ± 0.033	1.74 ± 0.071	0.753 ± 0.077
CGGGC	0.725 ± 0.09	1.94 ± 0.065	2.01 ± 0.0021	0.717 ± 0.016
AUGGU	0.596 ± 0.13	2.02 ± 0.032	1.78 ± 0.044	0.728 ± 0.049
AUGGA	0.368 ± 0.04	1.94 ± 0.043	1.68 ± 0.16	0.63116 ± 0.00056
AUGGC	0.932 ± 0.11	2.008 ± 0.0029	1.88 ± 0.085	0.903 ± 0.041
AUGUC	0.983 ± 0.034	1.99 ± 0.11	1.84 ± 0.066	0.935 ± 0.12
AUGUA	0.696 ± 0.018	1.97 ± 0.11	1.77 ± 0.046	0.908 ± 0.042
AUGUU	0.847 ± 0.054	1.93 ± 0.068	1.87 ± 0.031	0.8299 ± 0.0036

Variant	FACS-Seq fitted mean (log10) (theophylline [1])	normalized RNA/DNA level with ligand (log10) (theophylline [2])	normalized RNA/DNA level without ligand (log10) (theophylline [3])	FACS-Seq fitted mean (log10) (theophylline [4])
AUGUG	0.254 ± 0.065	1.96 ± 0.097	1.87 ± 0.029	0.295 ± 0.11
GUACU	0.8686 ± 0.0017	2 ± 0.044	1.93 ± 0.08	0.97 ± 0.03
UUAUU	0.914 ± 0.092	1.96 ± 0.12	1.95 ± 0.11	0.942 ± 0.076
UUAUG	0.732 ± 0.015	2.06 ± 0.071	1.907 ± 0.0097	0.821 ± 0.031
UUAUC	1.09 ± 0.15	2.04 ± 0.049	1.96 ± 0.16	1.19 ± 0.12
UGGGA	-0.00768 ± 0.057	2.02 ± 0.07	1.6195 ± 0.0012	0.178 ± 0.054
CGUGA	-0.0723 ± 0.18	1.97 ± 0.025	1.58 ± 0.054	0.221 ± 0.11
GUAUU	0.754 ± 0.04	2.01 ± 0.053	1.88 ± 0.046	0.8044 ± 0.005
AUUAA	0.68 ± 0.04	1.94 ± 0.11	1.74 ± 0.099	0.832 ± 0.041
AUGCA	0.792 ± 0.023	2.023 ± 0.014	1.841 ± 0.0049	0.96 ± 0.14
AUGCC	0.828 ± 0.054	2 ± 0.033	1.96 ± 0.071	0.852 ± 0.022
AUGCG	0.848 ± 0.14	1.99 ± 0.11	1.87 ± 0.06	0.986 ± 0.1
AUACA	0.687 ± 0.07	1.98 ± 0.021	1.85 ± 0.12	0.796 ± 0.012
AUACG	0.526 ± 0.063	2.0061 ± 0.0018	1.831 ± 0.0082	0.507 ± 0.02
AUACU	0.617 ± 0.06	2.02 ± 0.038	1.79 ± 0.033	0.713 ± 0.032
CUGCU	0.644 ± 0.032	1.92 ± 0.082	1.86 ± 0.062	0.658 ± 0.0024
CUGCC	0.906 ± 0.094	2.09 ± 0.045	1.9591 ± 0.0014	0.841 ± 0.055
UUCUC	1.19 ± 0.051	1.99 ± 0.049	1.94 ± 0.057	1.15 ± 0.13
UUCUU	0.641 ± 0.06	2.03 ± 0.11	1.99 ± 0.057	0.58 ± 0.037
UUGUG	0.172 ± 0.13	1.96 ± 0.09	1.868 ± 0.014	0.266 ± 0.051
UUGUC	0.132 ± 0.031	1.99 ± 0.027	2.01 ± 0.063	0.305 ± 0.035
UUGUA	0.431 ± 0.12	1.88 ± 0.029	1.53 ± 0.21	0.555 ± 0.051
AUGAG	0.655 ± 0.014	1.914 ± 0.0079	1.812 ± 0.0077	0.868 ± 0.029
